B1: sp¦Q9BVP2¦GNL3_HUMAN (protein, UniProt Q9BVP2 1-549, looked up)
Guanine nucleotide-binding …: MKRPKLKKASKRMTCHKRYKIQKKVREHHRKLRKEAKKRGHKKPRKDPGVPNSAPFKEALLREAELRKQRLEELKQQQKLDRQKELEKKRKLETNPDIKPSNVEPMEKEFGLCKTENKAKSGKQNSKKLYCQELKKVIEASDVVLEVLDARDPLGCRCPQVEEAIVQSGQKKLVLILNKSDLVPKENLESWLNYLKKELPTVVFRASTKPKDKGKITKRVKAKKNAAPFRSEVCFGKEGLWKLLGGFQETCSKAIRVGVIGFPNVGKSSIINSLKQEQMCNVGVSMGLTRSMQVVPLDKQITIIDSPSFIVSPLNSSSALALRSPASIEVVKPMEAASAILSQADARQVVLKYTVPGYRNSLEFFTVLAQRRGMHQKGGIPNVEGAAKLLWSEWTGASLAYYCHPPTSWTPPPYFNESIVVDMKSGFNLEELEKNNAQSIRAIKGPHLANSILFQSSGLTNGIIEEKDIHEELPKRKERKQEEREDDKDSDQETVDEEVDENSSGMFAAEETGEALSEETTAGEQSTRSFILDKIIEEDDAYDFSTDYV
B2: sp¦P26639¦SYTC_HUMAN (protein, UniProt P26639 1-723, looked up)
Threonine--tRNA ligase 1, …: MFEEKASSPSGKMGGEEKPIGAGEEKQKEGGKKKNKEGSGDGGRAELNPWPEYIYTRLEMYNILKAEHDSILAEKAEKDSKPIKVTLPDGKQVDAESWKTTPYQIACGISQGLADNTVIAKVNNVVWDLDRPLEEDCTLELLKFEDEEAQAVYWHSSAHIMGEAMERVYGGCLCYGPPIENGFYYDMYLEEGGVSSNDFSSLEALCKKIIKEKQAFERLEVKKETLLAMFKYNKFKCRILNEKVNTPTTTVYRCGPLIDLCRGPHVRHTGKIKALKIHKNSSTYWEGKADMETLQRIYGISFPDPKMLKEWEKFQEEAKNRDHRKIGRDQELYFFHELSPGSCFFLPKGAYIYNALIEFIRSEYRKRGFQEVVTPNIFNSRLWMTSGHWQHYSENMFSFEVEKELFALKPMNCPGHCLMFDHRPRSWRELPLRLADFGVLHRNELSGALTGLTRVRRFQQDDAHIFCAMEQIEDEIKGCLDFLRTVYSVFGFSFKLNLSTRPEKFLGDIEVWDQAEKQLENSLNEFGEKWELNSGDGAFYGPKIDIQIKDAIGRYHQCATIQLDFQLPIRFNLTYVSHDGDDKKRPVIVHRAILGSVERMIAILTENYGGKWPFWLSPRQVMVVPVGPTCDEYAQKVRQQFHDAKFMADIDLDPGCTLNKKIRNAQLAQYNFILVVGEKEKISGTVNIRTRDNKVHGERTISETIERLQQLKEFRSKQAEEEF
B3: sp¦P54687¦BCAT1_HUMAN (protein, UniProt P54687 1-386, looked up)
Branched-chain-amino-acid …: MKDCSNGCSAECTGEGGSKEVVGTFKAKDLIVTPATILKEKPDPNNLVFGTVFTDHMLTVEWSSEFGWEKPHIKPLQNLSLHPGSSALHYAVELFEGLKAFRGVDNKIRLFQPNLNMDRMYRSAVRATLPVFDKEELLECIQQLVKLDQEWVPYSTSASLYIRPTFIGTEPSLGVKKPTKALLFVLLSPVGPYFSSGTFNPVSLWANPKYVRAWKGGTGDCKMGGNYGSSLFAQCEAVDNGCQQVLWLYGEDHQITEVGTMNLFLYWINEDGEEELATPPLDGIILPGVTRRCILDLAHQWGEFKVSERYLTMDDLTTALEGNRVREMFGSGTACVVCPVSDILYKGETIHIPTMENGPKLASRILSKLTDIQYGREESDWTIVLS
B4: sp¦O60832¦DKC1_HUMAN (protein, UniProt O60832 2-514, looked up)
H/ACA ribonucleoprotein …: ADAEVIILPKKHKKKKERKSLPEEDVAEIQHAEEFLIKPESKVAKLDTSQWPLLLKNFDKLNVRTTHYTPLACGSNPLKREIGDYIRTGFINLDKPSNPSSHEVVAWIRRILRVEKTGHSGTLDPKVTGCLIVCIERATRLVKSQQSAGKEYVGIVRLHNAIEGGTQLSRALETLTGALFQRPPLIAAVKRQLRVRTIYESKMIEYDPERRLGIFWVSCEAGTYIRTLCVHLGLLLGVGGQMQELRRVRSGVMSEKDHMVTMHDVLDAQWLYDNHKDESYLRRVVYPLEKLLTSHKRLVMKDSAVNAICYGAKIMLPGVLRYEDGIEVNQEIVVITTKGEAICMAIALMTTAVISTCDHGIVAKIKRVIMERDTYPRKWGLGPKASQKKLMIKQGLLDKHGKPTDSTPATWKQEYVDYSESAKKEVVAEVVKAPQVVAEAAKTAKRKRESESESDETPPAAPQLIKKEKKKSKKDKKAKAGLESGAEPGDGDSDTTKKKKKKKKAKEVELVSE
B5: sp¦Q86W42¦THOC6_HUMAN (protein, UniProt Q86W42 1-341, looked up)
THO complex subunit 6: MERAVPLAVPLGQTEVFQALQRLHMTIFSQSVSPCGKFLAAGNNYGQIAIFSLSSALSSEAKEESKKPVVTFQAHDGPVYSMVSTDRHLLSAGDGEVKAWLWAEMLKKGCKELWRRQPPYRTSLEVPEINALLLVPKENSLILAGGDCQLHTMDLETGTFTRVLRGHTDYIHCLALRERSPEVLSGGEDGAVRLWDLRTAKEVQTIEVYKHEECSRPHNGRWIGCLATDSDWMVCGGGPALTLWHLRSSTPTTIFPIRAPQKHVTFYQDLILSAGQGRCVNQWQLSGELKAQVPGSSPGLLSLSLNQQPAAPECKVLTAAGNSCRVDVFTNLGYRAFSLSF
B6: sp¦Q52LJ0¦FA98B_HUMAN (protein, UniProt Q52LJ0 1-433, looked up)
Protein FAM98B: MRGPEPGPQPTMEGDVLDTLEALGYKGPLLEEQALTKAAEGGLSSPEFSELCIWLGSQIKSLCNLEESITSAGRDDLESFQLEISGFLKEMACPYSVLISGDIKDRLKKKEDCLKLLLFLSTELQASQILQNKKHKNSQLDKNSEVYQEVQAMFDTLGIPKSTTSDIPHMLNQVESKVKDILSKVQKNHVGKPLLKMDLNSEQAEQLERINDALSCEYECRRRMLMKRLDVTVQSFGWSDRAKVKTDDIARIYQPKRYALSPKTTITMAHLLAAREDLSKIIRTSSGTSREKTACAINKVLMGRVPDRGGRPNEIEPPPPEMPPWQKRQEGGGGRGGWGGGGGGGGRGGGGGGGGRGGWGGGGGGWGGGGGGGGGWGGGGGGGRGGFQGRGDYGGRGGYGGRGGYGGRGYGDPYGGGGGGGGGGGGGGGYRRY
B7: sp¦P50213¦IDH3A_HUMAN (protein, UniProt P50213 28-366, looked up)
Isocitrate dehydrogenase …: TGGVQTVTLIPGDGIGPEISAAVMKIFDAAKAPIQWEERNVTAIQGPGGKWMIPSEAKESMDKNKMGLKGPLKTPIAAGHPSMNLLLRKTFDLYANVRPCVSIEGYKTPYTDVNIVTIRENTEGEYSGIEHVIVDGVVQSIKLITEGASKRIAEFAFEYARNNHRSNVTAVHKANIMRMSDGLFLQKCREVAESCKDIKFNEMYLDTVCLNMVQDPSQFDVLVMPNLYGDILSDLCAGLIGGLGVTPSGNIGANGVAIFESVHGTAPDIAGKDMANPTALLLSAVMMLRHMGLFDHAARIEAACFATIKDGKSLTKDLGGNAKCSDFTEEICRRVKDLD
B8: sp¦Q70J99¦UN13D_HUMAN (protein, UniProt Q70J99 1-1090, looked up)
Protein unc-13 homolog D: MATLLSHPQQRPPFLRQAIKIRRRRVRDLQDPPPQMAPEIQPPSHHFSPEQRALLYEDALYTVLHRLGHPEPNHVTEASELLRYLQEAFHVEPEEHQQTLQRVRELEKPIFCLKATVKQAKGILGKDVSGFSDPYCLLGIEQGVGVPGGSPGSRHRQKAVVRHTIPEEETHRTQVITQTLNPVWDETFILEFEDITNASFHLDMWDLDTVESVRQKLGELTDLHGLRRIFKEARKDKGQDDFLGNVVLRLQDLRCREDQWYPLEPRTETYPDRGQCHLQFQLIHKRRATSASRSQPSYTVHLHLLQQLVSHEVTQHEAGSTSWDGSLSPQAATVLFLHATQKDLSDFHQSMAQWLAYSRLYQSLEFPSSCLLHPITSIEYQWIQGRLKAEQQEELAASFSSLLTYGLSLIRRFRSVFPLSVSDSPARLQSLLRVLVQMCKMKAFGELCPNTAPLPQLVTEALQTGTTEWFHLKQQHHQPMVQGIPEAGKALLGLVQDVIGDLHQCQRTWDKIFHNTLKIHLFSMAFRELQWLVAKRVQDHTTVVGDVVSPEMGESLFQLYISLKELCQLRMSSSERDGVLALDNFHRWFQPAIPSWLQKTYNEALARVQRAVQMDELVPLGELTKHSTSAVDLSTCFAQISHTARQLDWPDPEEAFMITVKFVEDTCRLALVYCSLIKARARELSSGQKDQGQAANMLCVVVNDMEQLRLVIGKLPAQLAWEALEQRVGAVLEQGQLQNTLHAQLQSALAGLGHEIRTGVRTLAEQLEVGIAKHIQKLVGVRESVLPEDAILPLMKFLEVELCYMNTNLVQENFSSLLTLLWTHTLTVLVEAAASQRSSSLASNRLKIALQNLEICFHAEGCGLPPKALHTATFQALQRDLELQAASSRELIRKYFCSRIQQQAETTSEELGAVTVKASYRASEQKLRVELLSASSLLPLDSNGSSDPFVQLTLEPRHEFPELAARETQKHKKDLHPLFDETFEFLVPAEPCRKAGACLLLTVLDYDTLGADDLEGEAFLPLREVPGLSGSEEPGEVPQTRLPLTYPAPNGDPILQLLEGRKGDREAQVFVRLRRHRAKQASQHALRPAP
B9: sp¦O95573¦ACSL3_HUMAN (protein, UniProt O95573 1-720, looked up)
Fatty acid CoA ligase Acsl3: MNNHVSSKPSTMKLKHTINPILLYFIHFLISLYTILTYIPFYFFSESRQEKSNRIKAKPVNSKPDSAYRSVNSLDGLASVLYPGCDTLDKVFTYAKNKFKNKRLLGTREVLNEEDEVQPNGKIFKKVILGQYNWLSYEDVFVRAFNFGNGLQMLGQKPKTNIAIFCETRAEWMIAAQACFMYNFQLVTLYATLGGPAIVHALNETEVTNIITSKELLQTKLKDIVSLVPRLRHIITVDGKPPTWSEFPKGIIVHTMAAVEALGAKASMENQPHSKPLPSDIAVIMYTSGSTGLPKGVMISHSNIIAGITGMAERIPELGEEDVYIGYLPLAHVLELSAELVCLSHGCRIGYSSPQTLADQSSKIKKGSKGDTSMLKPTLMAAVPEIMDRIYKNVMNKVSEMSSFQRNLFILAYNYKMEQISKGRNTPLCDSFVFRKVRSLLGGNIRLLLCGGAPLSATTQRFMNICFCCPVGQGYGLTESAGAGTISEVWDYNTGRVGAPLVCCEIKLKNWEEGGYFNTDKPHPRGEILIGGQSVTMGYYKNEAKTKADFFEDENGQRWLCTGDIGEFEPDGCLKIIDRKKDLVKLQAGEYVSLGKVEAALKNLPLVDNICAYANSYHSYVIGFVVPNQKELTELARKKGLKGTWEELCNSCEMENEVLKVLSEAAISASLEKFEIPVKIRLSPEPWTPETGLVTDAFKLKRKELKTHYQADIERMYGRK

System: human HL60 cells
Experiment: SWATH-MS proteomics, differential protein representation, akirin2 KO vs WT HL60 cells
Assay type: cell-based
Details: akirin2 KO vs WT HL60 cells, sheet "Under-represented in KO"
How it was run: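 Read-out is label-free SWATH-MS protein area, globally normalized to total detected-protein area, with identifications held at 1% FDR against a library from information-dependent acquisition.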

| Molecule | Fold Change (SWATH-MS) | Log (Fold Change) (SWATH-MS) | Fold Change | Log (Fold Change) |
| --- | --- | --- | --- | --- |
| B1 | 0.7833 | -0.1061 |  |  |
| B2 | 0.7727 | -0.112 |  |  |
| B3 | 0.7726 | -0.112 |  |  |
| B4 | 0.774 | -0.1113 |  |  |
| B5 | 0.7851 | -0.1051 |  |  |
| B6 | 0.7848 | -0.1053 |  |  |
| B7 | 0.7755 | -0.1104 |  |  |
| B8 | 0.785 | -0.1051 |  |  |
| B9 |  |  | 0.3507 | -0.4551 |

— PMC8298264, “Function of cofactor Akirin2 in the regulation of gene expression in model human neutrophil-like HL60 cells” (Bioscience Reports, 2021)
